{
  "source": "the supplement of paper PMC10567573",
  "assay": "protein stability index of a GFP-peptide fusion (GPS, HEK-293T) (PSI 1-6); higher = more stable",
  "data": [
    {"protein": "RQHHHQSSFPGSLPQETNLTLKVC", "values": [
      {"measurement": "protein stability index", "setting": "parent: IOH57371_7, c terminus: a fixed tail appended", "result": 2.86}
    ]},
    {"protein": "FVAENSSLHPESGQENDATSPHFS", "note": "[CD69 WT]", "values": [
      {"measurement": "protein stability index", "setting": "parent: IOH57037_2, c terminus: a fixed tail appended", "result": 2.9}
    ]},
    {"protein": "AGSRQALSFEVPPCNYDPEKWIQ", "note": "[MGC16075 WT]", "values": [
      {"measurement": "protein stability index", "setting": "parent: IOH57016_8, c terminus: native", "result": 1.84}
    ]},
    {"protein": "ETIQGFWLLTKIDHWNNEKERILL", "note": "[TPRG1 WT]", "values": [
      {"measurement": "protein stability index", "setting": "parent: IOH59452_16, c terminus: a fixed tail appended", "result": 2.09}
    ]},
    {"protein": "MELLRTITYQPAASTKMCEQALGK", "values": [
      {"measurement": "protein stability index", "setting": "parent: IOH57150_1, c terminus: a fixed tail appended", "result": 2.16}
    ]},
    {"protein": "FHGTRQYKFDPKTKRILTLQKANS", "values": [
      {"measurement": "protein stability index", "setting": "parent: IOH59103_74, c terminus: a fixed tail appended", "result": 1.72}
    ]},
    {"protein": "RGRHEQSPTSRPRKVSSLPPRSC", "values": [
      {"measurement": "protein stability index", "setting": "parent: IOH58746_22, c terminus: native", "result": 2.58}
    ]},
    {"protein": "PRGRAHLLPNPYQQDFLGLPEELR", "values": [
      {"measurement": "protein stability index", "setting": "parent: IOH58746_12, c terminus: a fixed tail appended", "result": 3.93}
    ]},
    {"protein": "FCASTRLPPTPLLLFPEEEATNGR", "values": [
      {"measurement": "protein stability index", "setting": "parent: IOH56238_25, c terminus: a fixed tail appended", "result": 2.88}
    ]},
    {"protein": "ITQSWQVSVRVQPRGRAHLLPNPY", "values": [
      {"measurement": "protein stability index", "setting": "parent: IOH58746_10, c terminus: a fixed tail appended", "result": 1.87}
    ]},
    {"protein": "LNFQIEHHLFPTMPRHNYHKVAPL", "note": "[FADS1 WT]", "values": [
      {"measurement": "protein stability index", "setting": "parent: IOH55275_64, c terminus: a fixed tail appended", "result": 2.38}
    ]},
    {"protein": "WIHCFEGVTAIIFCVALSDYDLVL", "note": "[GNAI1 WT]", "values": [
      {"measurement": "protein stability index", "setting": "parent: IOH55111_36, c terminus: a fixed tail appended", "result": 2.97}
    ]},
    {"protein": "HMFTPKLDKMLDPQVWREAATQVF", "values": [
      {"measurement": "protein stability index", "setting": "parent: IOH55656_48, c terminus: a fixed tail appended", "result": 1.92}
    ]},
    {"protein": "FVRGDHRDNSPFDGPGGNLAHAFQ", "values": [
      {"measurement": "protein stability index", "setting": "parent: IOH59103_28, c terminus: a fixed tail appended", "result": 1.98}
    ]},
    {"protein": "YAELGQCSVFPATDAPEQFISQVT", "values": [
      {"measurement": "protein stability index", "setting": "parent: IOH57150_92, c terminus: a fixed tail appended", "result": 2.17}
    ]},
    {"protein": "CCSSADICPKCWTLMTMAIRIIDR", "note": "[PRIM1 WT]", "values": [
      {"measurement": "protein stability index", "setting": "parent: IOH60890_21, c terminus: a fixed tail appended", "result": 1.95}
    ]},
    {"protein": "MFFKDRFYMRTNPFYPEVELNFIS", "values": [
      {"measurement": "protein stability index", "setting": "parent: IOH59103_50, c terminus: a fixed tail appended", "result": 2.27}
    ]},
    {"protein": "FMPAMQFSIPPWRYDAEVVAIAQK", "note": "[KIAA1161 WT]", "values": [
      {"measurement": "protein stability index", "setting": "parent: IOH61072_98, c terminus: a fixed tail appended", "result": 1.76}
    ]},
    {"protein": "YTPDLPRADVDHAIEKAFQLWSNV", "values": [
      {"measurement": "protein stability index", "setting": "parent: IOH59103_21, c terminus: a fixed tail appended", "result": 1.83}
    ]},
    {"protein": "EQVFSLGDGVSGGFFGIRDSSFL", "note": "[ZBED1 WT]", "values": [
      {"measurement": "protein stability index", "setting": "parent: IOH55626_115, c terminus: native", "result": 3.38}
    ]},
    {"protein": "VEKVLRRWVDEEWPKRERGDPSRH", "note": "[EDARADD WT]", "values": [
      {"measurement": "protein stability index", "setting": "parent: IOH59721_31, c terminus: a fixed tail appended", "result": 2.77}
    ]},
    {"protein": "EGLLRFSSWPFSIQDVVQPLTLQV", "values": [
      {"measurement": "protein stability index", "setting": "parent: IOH56238_29, c terminus: a fixed tail appended", "result": 2.09}
    ]},
    {"protein": "FTQSGPIVSRATGRCLEVEMSKDA", "note": "[GALNT9 WT]", "values": [
      {"measurement": "protein stability index", "setting": "parent: IOH59749_32, c terminus: a fixed tail appended", "result": 2.02}
    ]},
    {"protein": "ISKKFGDMSYSIRHSISMPAMRNS", "note": "[TPD52L1 WT]", "values": [
      {"measurement": "protein stability index", "setting": "parent: IOH59709_21, c terminus: a fixed tail appended", "result": 2.22}
    ]},
    {"protein": "YHTSQSGDEMTSLSEYVSRMKETQ", "note": "[HSP90AB1 WT]", "values": [
      {"measurement": "protein stability index", "setting": "parent: IOH61079_77, c terminus: a fixed tail appended", "result": 3.7}
    ]},
    {"protein": "KAVEEELDAEDRPAWNSKLQYILA", "values": [
      {"measurement": "protein stability index", "setting": "parent: IOH55656_9, c terminus: a fixed tail appended", "result": 2.81}
    ]},
    {"protein": "LPQETNLTLKVCKPQAPQKLDPTL", "values": [
      {"measurement": "protein stability index", "setting": "parent: IOH57371_9, c terminus: a fixed tail appended", "result": 3.74}
    ]}
  ]
}
